The target in series [1] is T1, HA-tagged PRL1 expressed in HEK293 cells, Q93096.
T1 chain: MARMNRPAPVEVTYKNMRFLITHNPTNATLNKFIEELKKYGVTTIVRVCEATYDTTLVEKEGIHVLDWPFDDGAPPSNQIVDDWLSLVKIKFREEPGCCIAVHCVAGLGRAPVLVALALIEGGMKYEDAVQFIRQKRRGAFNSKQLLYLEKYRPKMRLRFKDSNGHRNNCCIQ
The series can be described thus: cross-linking. The conditions noted are these: remark: other sources report otherwise.

Series [2] deals with the molecule itself.
The series “cross-linking” concerns the molecule itself. In words: cross-linking.

Consider 5 molecules from article PMC4987244 (Cancer research, 2016).

Residue numbers refer to the chain shown, from its start. Names and notes keep the numbering of the source. Where two headings read alike, the source gives them in different places.

B1: HA-tagged PRL1 expressed in HEK293 cells, Q93096 1-173 (enzyme)
chain: T1 chain
In the case of B1, in series [1], the stoichiometry N worked out at 3.

B2: PRL2 (enzyme, UniProt Q12974 1-167, looked up)
chain: MNRPAPVEISYENMRFLITHNPTNATLNKFTEELKKYGVTTLVRVCDATYDKAPVEKEGIHVLDWPFDDGAPPPNQIVDDWLNLLKTKFREEPGCCVAVHCVAGLGRAPVLVALALIECGMKYEDAVQFIRQKRRGAFNSKQLLYLEKYRPKMRLRFRDTNGHCCVQ
With B2, the “stoichiometry N” value in series [2] is 3.

B3: PRL1 (phosphatase of regenerating liver 1), recombinant wild type (enzyme)
chain: MNRPAPVEVTYKNMRFLITHNPTNATLNKFIEELKKYGVTTIVRVCEATYDTTLVEKEGIHVLDWPFDDGAPPSNQIVDDWLSLVKIKFREEPGCCIAVHCVAGLGRAPVLVALALIEGGMKYEDAVQFIRQKRRGAFNSKQLLYLEKYRPKMRLRF
In the case of B3, in the series “cross-linking”, the “stoichiometry N” value stood at 3.

B4: PRL1/Y14A, recombinant (enzyme)
chain: B3 chain with Y11A
As to B4, the “stoichiometry N” value in “cross-linking” stood at 3.

B5: PRL1/F132A, recombinant (enzyme)
chain: B3 chain with F129A
As to B5, in “cross-linking”, the “stoichiometry N” value came to 3.

As a reminder, the stoichiometry N is the number of molecules, sites or subunits per partner or assembly.
